The source of these data is patent US10925971B2, “Methods of treating PRLR positive breast cancer” (Regeneron Pharmaceuticals, Inc., priority 2016, dated 2021).

Sequences and labels used below:
B1: H1H6958N2: anti-PRLR antibody, receptor blocking, human IgG1 Fc form of H2M6958N2 of Table 1; HCVR/LCVR SEQ ID NOs 290/298 (antibody, V domains shown)
VH: QVQLVESGGGVVQPGRSLRLSCGASGFTFRNYGMQWVRQGPGKGLEWVTLISFDGNDKYYADSVKGRFTISRDNSKNTLFLQMNSLRTEDTAVYYCARGGDFDYWGQGTLVTVSS
VL: DIQMTQSPSSLSASVGDRVTITCRASQDIRKDLGWYQQKPGKAPKRLIYAASSLHSGVPSRFSGSGSGTEFTLTISSLQPEDFATYYCLQHNSYPMYTFGQGTKLEIK
B2: H1H6975N: anti-PRLR antibody, human IgG1 Fc form of H2M6975N of Table 1; HCVR/LCVR SEQ ID NOs 370/378 (antibody, V domains shown)
VH: EVHLVESGGGLVQPGGSLRLSCAASGFTFSSYEMNWVRQTPGKGLEWISHISSRSVIIYYADSVKGRFTISRDNAKNSLFLQMNSLRAEDTAVYFCAGITIFGIPEYWGQGTLVTVSS
VL: EIVLTQSPATLSLSPGERATLSCRASQSVSSYFAWYQQKPGQAPRLLIYDASSRATGIPTRFSGSGSGTDFTLTISSLEPEDFAVYYCQQRSSWPITFGQGTRLEIK
modifications: human IgG1 Fc
B3: H1H6774P: fully human anti-PRLR antibody, human IgG1 Fc; HCVR/LCVR SEQ ID NOs 34/42 (antibody, V domains shown)
VH: EVQLVESGGGLAQPGGSLRLSCVASGFTFSTYWMSWVRQAPGKGLDWVGNIKQDGSEQNYVDSVRGRFTISRDNAKNSLFLQMNSLRAEDTGVYYCATLLTKGDYWGQGTLVTVSS
VL: DIQMTQSPSSLSASVGDSVTITCRASQDISNYLDWFQQKPGKAPKSLIYAASILQGGVPSRFSGSGYGTDFTLTISSLQPEDFATYYCRQYKTYPFTFGPGTKVDIK
B4: H1H6795P: fully human anti-PRLR antibody, human IgG1 Fc; HCVR/LCVR SEQ ID NOs 162/170 (antibody, V domains shown)
VH: QVQLVQSGAEVKKPGASVKVSCKASGYTFGTSGITWVRQAPGQGLEWMGWSSAYNGKTDYAQKFQDRVTMTTDTSTTTGYMEMRSLTSDDTAVYYCTTVVRRPFDFWGQGTLVTVSS
VL: DIQMTQSPSSLSASVGDRVTITCRASQDINNFLAWFQQKPGKAPKSLIYAASSLQSGVPSKFSGGGSGTDFALTISSLQPEDFATYYCQQYSSYPITFGQGTRLEIK
B5: H1H6797P: fully human anti-PRLR antibody, human IgG1 Fc; HCVR/LCVR SEQ ID NOs 178/186 (antibody, V domains shown)
VH: EVQLVESGGGLVQPGGSLRLSCIVSGFTFSGSWMSWVRQLPGKGLEWVANIKEDGSDSYYVDSVEGRFTISRDNAKSSLYLQMNSLRVDDTAVYFCARARTVPLHYWGQGTLVTVSS
VL: DIQMTQSPSTLSASVGDRVTITCRASQSINIWLAWYQQKPGKAPKLLIYRASYLESGVPSSFAGGGSGTEFTLTISSLQPDDFGTYYCQHYNSYPFTFGQGTKLEIK

The subject of one test is MCF7/PRLR tumors. As to the kind of experiment: MCF7/PRLR breast cancer xenograft, tumor size and tumor growth inhibition. The test is classed as in vivo, NCr nude mice. To be noted: MCF7/PRLR tumors TRIAL #1; NCr Nude mice; multi-dose 15 mg/kg; Day 52. The essentials:
(§1)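 MCF7/PRLR cells in mammary fat pad of female NCr nude mice, PC3/PRLR in flank of male SCID, T47D #11 in flank of female CB17 SCID, all with estrogen pellets.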
For B1, the “Average Tumor Growth Inhibition (%)” value was 74% and the “Final Tumor size mm^3 (mean ± SEM)” value is given as 483 ± 46 mm^3.

Turning to B2, the “Average Tumor Growth Inhibition (%)” value was determined as 51% and the “Final Tumor size mm^3 (mean ± SEM)” value is recorded as 659 ± 144 mm^3.

Staying with this test, now noted: MCF7/PRLR tumors TRIAL #2; NCr Nude mice; multi-dose 15 mg/kg; Day 63.
Regarding B1, the “Average Tumor Growth Inhibition (%)” value is given as 17% and the “Final Tumor size mm^3 (mean ± SEM)” value came to 766 ± 128 mm^3.

Staying with this test, now noted: MCF7/PRLR tumors; single dose 15 mg/kg; Day 55.
Take B1: the “Final Tumor size mm^3 (mean ± SEM)” value was found to be 703 ± 160 mm^3.

Another test concerns the target T1, native PRLR expressing T47D cells (Homo sapiens, UniProt P16471).
T1 construct: a native PRLR expressing cell line (T47D); endogenous in cells; host or cells: T47D
T1 sequence (P16471 25-622): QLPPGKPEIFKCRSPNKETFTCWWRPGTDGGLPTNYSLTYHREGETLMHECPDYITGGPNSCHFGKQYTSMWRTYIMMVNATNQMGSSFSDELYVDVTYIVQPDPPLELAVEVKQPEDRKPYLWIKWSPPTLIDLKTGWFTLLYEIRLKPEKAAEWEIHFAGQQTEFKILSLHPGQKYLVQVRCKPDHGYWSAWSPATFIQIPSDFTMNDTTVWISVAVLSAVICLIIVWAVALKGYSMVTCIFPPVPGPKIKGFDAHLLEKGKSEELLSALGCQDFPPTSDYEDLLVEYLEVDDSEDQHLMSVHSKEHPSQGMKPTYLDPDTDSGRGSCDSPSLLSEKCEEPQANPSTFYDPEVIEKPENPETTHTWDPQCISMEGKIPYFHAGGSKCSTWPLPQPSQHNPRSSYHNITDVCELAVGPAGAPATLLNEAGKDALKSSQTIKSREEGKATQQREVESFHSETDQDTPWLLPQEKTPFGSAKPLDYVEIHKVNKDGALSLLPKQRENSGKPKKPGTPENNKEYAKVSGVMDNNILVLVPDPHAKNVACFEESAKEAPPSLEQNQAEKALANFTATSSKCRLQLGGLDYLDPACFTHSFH
The test is described as follows: FACS cell surface binding.
Conditions: not given
Put shortly:
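Binding expressed as mean fluorescence fold change above isotype background, measured by FACS after 30 min on ice with 10 μg/ml antibody and PE-conjugated anti-human detection. T47D, which natively expresses PRLR, tested with engineered HEK293/hPRLR and non-expressing HEK293 cells.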
As to B3, the “FACS Cell Binding” value is 39 Fold Above Background.

Regarding B4, the “FACS Cell Binding” value worked out at 34 Fold Above Background.

Regarding B5, the “FACS Cell Binding” value was found to be 38 Fold Above Background.

For B1, the “FACS Cell Binding” value was 37 Fold Above Background.

With B2, the “FACS Cell Binding” value stood at 46 Fold Above Background.

The target in another test is T2, monomeric human PRLR (hPRLR.mmh; SEQ ID NO:401) (Homo sapiens, UniProt P16471).
T2 construct: soluble monomeric (hPRLR.mmh); mmh (myc-myc-hexahistidine) (C)
T2 sequence (P16471 with tags, fused parts or gaps): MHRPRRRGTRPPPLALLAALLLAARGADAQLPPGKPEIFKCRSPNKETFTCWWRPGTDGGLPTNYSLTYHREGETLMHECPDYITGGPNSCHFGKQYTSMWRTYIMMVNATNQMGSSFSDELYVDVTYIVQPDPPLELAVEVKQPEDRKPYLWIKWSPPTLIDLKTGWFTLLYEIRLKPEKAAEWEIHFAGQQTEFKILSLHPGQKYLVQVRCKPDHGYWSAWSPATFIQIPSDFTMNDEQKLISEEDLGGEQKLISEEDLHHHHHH
The test is described as follows: Surface plasmon resonance (Biacore T200), antibody-capture format. The test is classed as binding. To be noted: 25° C., analyte hPRLR.mmh. The essentials:
(§2)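 Antibodies (human IgG1 Fc) captured on an anti-human Fc sensor surface; soluble monomeric (.mmh) or dimeric (.mFc) PRLR injected as analyte. ka and kd obtained by fitting to a 1:1 binding model.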
(SPR reads the build-up and loss of mass on a sensor chip optically.)
Molecule B3 gave a ka of 715000 M/s and a kd of 0.000818 s⁻¹.

Molecule B4 returned a ka of 1.17e+06 M/s and a kd of 0.00177 s⁻¹.

Turning to B5, the ka came out at 1.13e+06 M/s and the kd worked out at 0.00196 s⁻¹.

The molecule B1 showed a ka of 233000 M/s and a kd of 0.000272 s⁻¹.

For B2, the ka was found to be 150000 M/s and the kd is 7.35e-05 s⁻¹.

Still in this test, the particulars now being: 37° C., analyte hPRLR.mmh.
The molecule B3 displayed a ka of 1.07e+06 M/s and a kd of 0.00317 s⁻¹.

Molecule B4 displayed a ka of 1.36e+06 M/s and a kd of 0.0052 s⁻¹.

B5 came in with a ka of 1.29e+06 M/s and a kd of 0.00822 s⁻¹.

Regarding B1, the ka was 413000 M/s and the kd stood at 0.00131 s⁻¹.

The molecule B2 came in with a ka of 211000 M/s and a kd of 0.000273 s⁻¹.

A further test relates to Macaca fascicularis PRLR (mfPRLR.mmh; SEQ ID NO:403). Described as above. Type of test: binding. To be noted: 25° C., analyte mfPRLR.mmh. Put shortly: as §2
Macaca fascicularis PRLR (mfPRLR.mmh; SEQ ID NO:403), sequence (as listed by the source): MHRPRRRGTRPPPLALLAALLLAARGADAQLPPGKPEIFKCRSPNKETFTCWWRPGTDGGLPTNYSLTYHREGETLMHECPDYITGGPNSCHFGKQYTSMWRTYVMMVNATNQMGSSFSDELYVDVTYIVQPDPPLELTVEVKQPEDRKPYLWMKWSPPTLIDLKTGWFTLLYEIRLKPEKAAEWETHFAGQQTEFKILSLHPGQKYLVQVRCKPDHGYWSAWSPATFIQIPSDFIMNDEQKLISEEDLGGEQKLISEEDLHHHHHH
The molecule B3 showed a ka of 495000 M/s and a kd of 0.000875 s⁻¹.

The molecule B4 returned a ka of 844000 M/s and a kd of 0.00197 s⁻¹.

Take B5: the ka was 670000 M/s and the kd amounted to 0.00209 s⁻¹.

On to B1, for which the ka came out at 195000 M/s and the kd is 0.00028 s⁻¹.

B2 returned a ka of 115000 M/s and a kd of 0.000131 s⁻¹.

The test is the same for the next values; noted with them: 37° C., analyte mfPRLR.mmh.
As for B3, the ka was 723000 M/s and the kd is 0.00361 s⁻¹.

On to B4, for which the ka was determined as 973000 M/s and the kd was determined as 0.00599 s⁻¹.

Turning to B5, the ka came out at 914000 M/s and the kd is 0.00906 s⁻¹.

With B1, the ka came out at 328000 M/s and the kd was 0.00134 s⁻¹.

Molecule B2 had a ka of 140000 M/s and a kd of 0.000317 s⁻¹.

The target of a further test is T3, dimeric human PRLR (hPRLR.mFc; SEQ ID NO:402) (Homo sapiens, UniProt P16471).
T3 construct: dimeric (hPRLR.mFc)
T3 sequence (P16471 with tags, fused parts or gaps): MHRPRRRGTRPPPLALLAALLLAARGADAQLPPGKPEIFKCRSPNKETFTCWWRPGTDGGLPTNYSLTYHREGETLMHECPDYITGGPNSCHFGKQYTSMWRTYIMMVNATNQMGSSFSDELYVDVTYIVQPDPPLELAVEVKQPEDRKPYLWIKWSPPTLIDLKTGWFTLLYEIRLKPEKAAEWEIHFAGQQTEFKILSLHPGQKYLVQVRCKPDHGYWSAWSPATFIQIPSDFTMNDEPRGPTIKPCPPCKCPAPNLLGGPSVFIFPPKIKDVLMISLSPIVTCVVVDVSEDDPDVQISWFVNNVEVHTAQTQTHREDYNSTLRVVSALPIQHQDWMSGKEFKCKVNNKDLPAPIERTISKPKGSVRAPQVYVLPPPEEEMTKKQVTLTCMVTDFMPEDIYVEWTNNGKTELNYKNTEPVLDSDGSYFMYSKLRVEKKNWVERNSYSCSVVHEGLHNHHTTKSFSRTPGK
The description is as above. The test is classed as binding. To be noted: 25° C., analyte hPRLR.mFc. Put shortly:
as §2
B3 had a ka of 798000 M/s and a kd of 8.94e-05 s⁻¹.

Take B4: the ka worked out at 1.54e+06 M/s and the kd amounted to 8.41e-05 s⁻¹.

B5: the ka came out at 982000 M/s and the kd is 0.000119 s⁻¹.

Take B1: the ka was 422000 M/s and the kd was found to be 3.66e-05 s⁻¹.

The molecule B2 showed a ka of 287000 M/s and a kd of 1.97e-05 s⁻¹.

Staying with this test, now noted: 37° C., analyte hPRLR.mFc.
B3 returned a ka of 1.41e+06 M/s and a kd of 0.000194 s⁻¹.

On to B4, for which the ka is 1.94e+06 M/s and the kd came out at 7.77e-05 s⁻¹.

The molecule B5 gave a ka of 1.8e+06 M/s and a kd of 0.000125 s⁻¹.

B1 yielded a ka of 829000 M/s and a kd of 0.000139 s⁻¹.

Regarding B2, the ka was 386000 M/s and the kd came out at 7.09e-05 s⁻¹.

The test system of the next test is PC3/PRLR tumors. As to the kind of experiment: PC3/PRLR xenograft, tumor size and tumor growth inhibition. Type of test: in vivo, SCID mice. To be noted: PC3/PRLR tumors TRIAL #1; SCID mice; multi-dose 15 mg/kg; Day 63. The essentials: as §1
Turning to B1, the “Average Tumor Growth Inhibition (%)” value is −19% and the “Final Tumor size mm^3 (mean ± SEM)” value is 1507 ± 106 mm^3.

As for B2, the “Average Tumor Growth Inhibition (%)” value amounted to 12% and the “Final Tumor size mm^3 (mean ± SEM)” value is given as 1185 ± 97 mm^3.

The test is the same for the next values; noted with them: PC3/PRLR tumors TRIAL #2; SCID mice; multi-dose 15 mg/kg; Day 55.
Consider B1, for which the “Average Tumor Growth Inhibition (%)” value stood at 28% and the “Final Tumor size mm^3 (mean ± SEM)” value is listed as 917 ± 253 mm^3.
